Among the data in PMC5191963 (Hepatology (Baltimore, Md.), 2016) are Kd, koff and kon values, retold here.

What all share (assay): BLI
(In general: Biolayer interferometry detects binding as a change in optical thickness at a sensor tip.)

The target in assay [1] is T1, GST-tagged AIM2 (Invitrogen) (UniProt O14862 1-343).
T1 sequence (looked up): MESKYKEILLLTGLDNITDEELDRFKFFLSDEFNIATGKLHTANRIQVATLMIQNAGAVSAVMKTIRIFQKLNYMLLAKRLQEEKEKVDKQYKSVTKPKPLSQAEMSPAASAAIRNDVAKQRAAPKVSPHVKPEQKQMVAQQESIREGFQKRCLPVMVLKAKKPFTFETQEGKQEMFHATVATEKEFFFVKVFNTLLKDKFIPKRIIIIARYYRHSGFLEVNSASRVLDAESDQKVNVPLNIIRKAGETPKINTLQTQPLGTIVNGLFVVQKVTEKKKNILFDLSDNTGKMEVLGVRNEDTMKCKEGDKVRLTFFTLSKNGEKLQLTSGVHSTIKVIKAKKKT

Assay [2] deals with T1, GST-tagged AIM2 (Invitrogen). This is another data set of the same source.
For assay [3] the target is unchanged. The source holds these as a separate data set.
The target is the same in assay [4]. The source holds these as a separate data set.
Assay [5] shares this target. This is another data set of the same source.

Like-named read-outs stand apart in the source and are kept apart here.

B1: Recombinant HMGB1 A box (disulfide form, not treated with DTT) (domain or fragment)
chain: MGKGDPKKPRGKMSSYAFFVQTCREEHKKKHPDASVNFSEFSKKCSERWKTMSAKEKGKFEDMAKADKARYEREMKTYI
modifications: disulfide form (the paper calls the A box without DTT its disulfide form)
B1: in assay [1], the Kd (in general, the constant that tells how readily two partners part at equilibrium) was determined as 41 nM; the koff (as a rule, the first-order rate constant of dissociation) was determined as 0.00261 s⁻¹; the kon (as a rule, the rate constant with which the complex forms) worked out at 64000 M⁻¹ s⁻¹.

B2: Recombinant HMGB1 (disulfide HMGB1, not treated with DTT) (natural protein, human, UniProt P09429 1-215, looked up)
chain: MGKGDPKKPRGKMSSYAFFVQTCREEHKKKHPDASVNFSEFSKKCSERWKTMSAKEKGKFEDMAKADKARYEREMKTYIPPKGETKKKFKDPNAPKRPPSAFFLFCSEYRPKIKGEHPGLSIGDVAKKLGEMWNNTAADDKQPYEKKAAKLKEKYEKDIAAYRAKGKPDAAKKGVVKAEKSKKKKEEEEDEEDEEDEEEEEDEEDEDEEEDDDDE
modifications: disulfide bond between cysteines 23 and 45 (the paper calls the protein without DTT disulfide HMGB1)
Consider B2, for which the equilibrium dissociation constant (Kd) in assay [2] came out at 8 nM; in assay [1], 23 nM; in assay [3], 20 nM; in assay [4], 25 nM. In addition, the koff is 0.00014 s⁻¹ in assay [2], 0.00034 s⁻¹ in assay [1], 0.00034 s⁻¹ in assay [3] and 0.00033 s⁻¹ in assay [4]. In addition, the kon in assay [2] amounted to 17000 M⁻¹ s⁻¹; in assay [1], 14000 M⁻¹ s⁻¹; in assay [3] it was 17000 M⁻¹ s⁻¹; in assay [4], 13000 M⁻¹ s⁻¹.

B3: Recombinant HMGB1, fully reduced all-thiol form (5 mM DTT) (natural protein, human, UniProt P09429 1-215, looked up)
chain: MGKGDPKKPRGKMSSYAFFVQTCREEHKKKHPDASVNFSEFSKKCSERWKTMSAKEKGKFEDMAKADKARYEREMKTYIPPKGETKKKFKDPNAPKRPPSAFFLFCSEYRPKIKGEHPGLSIGDVAKKLGEMWNNTAADDKQPYEKKAAKLKEKYEKDIAAYRAKGKPDAAKKGVVKAEKSKKKKEEEEDEEDEEDEEEEEDEEDEDEEEDDDDE
In assay [5], B3 yielded a Kd of 13 nM, a koff of 0.00038 s⁻¹ and a kon of 30000 M⁻¹ s⁻¹.

B4: Recombinant HMGB1(C45S) (natural protein, human, UniProt P09429 1-215, looked up)
chain: MGKGDPKKPRGKMSSYAFFVQTCREEHKKKHPDASVNFSEFSKKSSERWKTMSAKEKGKFEDMAKADKARYEREMKTYIPPKGETKKKFKDPNAPKRPPSAFFLFCSEYRPKIKGEHPGLSIGDVAKKLGEMWNNTAADDKQPYEKKAAKLKEKYEKDIAAYRAKGKPDAAKKGVVKAEKSKKKKEEEEDEEDEEDEEEEEDEEDEDEEEDDDDE
On to B4, for which, in assay [1], the Kd was determined as 13 nM, the koff is 0.00036 s⁻¹ and the kon was 27000 M⁻¹ s⁻¹.

B5: Recombinant HMGB1(C23S) (natural protein, human, UniProt P09429 1-215, looked up)
chain: MGKGDPKKPRGKMSSYAFFVQTSREEHKKKHPDASVNFSEFSKKCSERWKTMSAKEKGKFEDMAKADKARYEREMKTYIPPKGETKKKFKDPNAPKRPPSAFFLFCSEYRPKIKGEHPGLSIGDVAKKLGEMWNNTAADDKQPYEKKAAKLKEKYEKDIAAYRAKGKPDAAKKGVVKAEKSKKKKEEEEDEEDEEDEEEEEDEEDEDEEEDDDDE
In assay [1], B5 gave a Kd of 12 nM, a koff of 0.0003 s⁻¹ and a kon of 25000 M⁻¹ s⁻¹.
